In US20200299389A1:

Columns and labels:
[1] = biological target: VEGF165 (UniProt P15692); test: ELISA; conditions: Fc fusion
[2] = biological target: VEGF165 (UniProt P15692); test: cell-based or functional assay

Sequence of VEGF165 (P15692 other isoform, or with tags, fused parts or gaps): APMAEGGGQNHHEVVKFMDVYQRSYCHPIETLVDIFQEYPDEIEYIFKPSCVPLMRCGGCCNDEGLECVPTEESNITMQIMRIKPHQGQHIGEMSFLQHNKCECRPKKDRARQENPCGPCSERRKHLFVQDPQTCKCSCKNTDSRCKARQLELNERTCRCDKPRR

Substance | EC50 [1] | inhibition of VEGF165-stimulated HUVEC proliferation (IC50) [2]
VEGFR-Fc (aflibercept) (from UniProt P17948 129-230; P35968 225-327) | 57 pM | –
VEGFR-Fc (aflibercept) (from UniProt P17948 129-230; P35968 225-327) (Fc fusion) | – | 107 pM
